# From patent US20080056997A1
# B1: scFv(P12) (scFv, part only; not given: VH-VL peptide linker, part only)
# scFv, part: EVQLVESGGGLVQPGGSLRLSCAASGFTFGQYSMSWVRQAPGKGLEWVSAITGTGGETYYADSVEGRFTISRDNSKNTLYLQMNSLRAEDTAVYYCAKGRRIFDYWGQGTLVTVSRSSELTQDPAVSVALGQTVRITCQGDSLRRQPASWYQQKPGQAPVLVIYYKKLRPSGIPDRFSGSSSGNTASLTITGAQAEDEADYYCNSFSPKPKPVVFGGGTKLTVLG
# Biological target: human domain D of tenascin C (TnC-D) (human) (UniProt P24821)
# Assay: method not stated in the sentence (ELISA-positive clone, further characterization)
# UniProt P24821, sequence (P24821 1622-1711): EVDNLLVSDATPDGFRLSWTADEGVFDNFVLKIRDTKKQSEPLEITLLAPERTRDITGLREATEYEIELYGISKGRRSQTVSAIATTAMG
binder,measurement,value
B1,factor of affinity improvement compared to scFv(D11),4.8 fold
